This assay deals with wild type pokeweed antiviral protein (PAP) (pokeweed) (UniProt P10297). As to the kind of experiment: cell-based or functional assay.
UniProt P10297, sequence (P10297 23-285 limits assumed): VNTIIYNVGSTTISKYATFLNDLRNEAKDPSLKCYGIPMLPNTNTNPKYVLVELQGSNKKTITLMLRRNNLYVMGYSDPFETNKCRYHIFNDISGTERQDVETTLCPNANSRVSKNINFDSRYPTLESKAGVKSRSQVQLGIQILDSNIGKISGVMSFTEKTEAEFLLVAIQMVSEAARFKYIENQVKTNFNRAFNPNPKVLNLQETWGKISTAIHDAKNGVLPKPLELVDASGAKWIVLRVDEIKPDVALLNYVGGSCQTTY

For “yeast wild type ribosomal protein L3 (full length) (from UniProt P14126 1-387)”, the transformation frequency of tobacco with L3+PAP (NT243) worked out at 24%.

For the origin of these results see US20120042415A1.
